Results as given in patent publication US20050142566A1 (CHILDREN S MEDICAL CENTER, published 2005).

Biological target: T1, CatSper1 (UniProt Q91ZR5 1-686)
T1 sequence (looked up): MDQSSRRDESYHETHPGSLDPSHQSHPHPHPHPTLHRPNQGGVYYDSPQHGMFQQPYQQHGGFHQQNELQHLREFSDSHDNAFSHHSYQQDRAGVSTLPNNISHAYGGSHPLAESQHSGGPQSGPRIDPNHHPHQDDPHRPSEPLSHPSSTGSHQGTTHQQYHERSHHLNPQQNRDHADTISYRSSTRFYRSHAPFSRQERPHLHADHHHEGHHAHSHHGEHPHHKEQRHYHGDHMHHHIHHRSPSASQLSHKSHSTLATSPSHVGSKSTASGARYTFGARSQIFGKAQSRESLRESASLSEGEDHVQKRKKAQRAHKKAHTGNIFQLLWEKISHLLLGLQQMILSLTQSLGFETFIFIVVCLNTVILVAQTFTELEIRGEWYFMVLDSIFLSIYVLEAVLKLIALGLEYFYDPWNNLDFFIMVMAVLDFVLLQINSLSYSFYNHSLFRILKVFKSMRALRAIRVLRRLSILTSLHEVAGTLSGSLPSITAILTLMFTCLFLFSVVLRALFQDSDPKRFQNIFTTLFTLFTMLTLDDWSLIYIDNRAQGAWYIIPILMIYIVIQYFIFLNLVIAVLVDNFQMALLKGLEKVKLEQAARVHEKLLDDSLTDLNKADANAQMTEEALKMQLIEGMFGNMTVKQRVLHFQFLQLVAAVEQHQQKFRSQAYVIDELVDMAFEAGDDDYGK
Experiment: co-immunoprecipitation from testis detergent extracts, immunoblot with CatSper1 antibody
Experimental: For immunoprecipitation, samples were extracted with TBS (20 mM Tris-HCl, 150 mM NaCl, pH 7.4) containing either 1% TX-100 or 1% Zwittergent 3-14 for at least 4 hours at 4° C. The extract was centrifuged at 100,000 ×g for 30 min, and the resultant supernatant solution was incubated for 2 hours with preimmune IgG covalently bound to Protein A agarose (Seize X™, Pierce Chemical Co., Rockford, Ill.). The nonbound fraction was recovered and incubated with peptide reactive antibody (±1.5 μM peptide preincubation)/Protein A agarose overnight with rocking at 4° C. The resulting immune complexes were washed 5 times. SDS-polyacrylamide electrophoresis was according to Laemmli (1970), Nature 227:680-5. Electrophoretically separated samples were transferred to nitrocellulose membranes according to Towbin et al. (1979), Proc. Natl. Acad. Sci. USA 76:4350-4, at 50V for 2 hours, 4° C. Immnunoblots were probed in TBST/2:5% nonfat milk with CatSper2 antibody (1:5000) or CatSper1 (1:2000) antibody. After incubation with, the primary antibody, the blots were rinsed once with TBST/2.5% nonfat milk and washed with TBST (4 changes over 30 min). Blots were then incubated with secondary goat anti-rabbit IgG-HRP conjugate for 1 hour, washed with TBST (3 changes over 30 min), rinsed with TBS (3 times), and the signal detected with chemiluminescence (Pierce Chemical Co., Rockford, Ill.). […]

binding result: no binding
B1: murine CatSper2 protein (SEQ ID NO: 6) (other)
chain: MAQEQGHFQLLRADAIRSKLIDTFSLIEHLQGLSQAVPRHTLREILDPAYQQKLMSGDQEQLVRFSIKPRRMGHITHSRRLLSRLRVRCSRMPPLSLWAGWVLDSSVFSKFIISLIFLNTFVLMVEIELMESTNTALWPVKLALEVADWFILLSFIVEILLMWLASFSLFWKDAWNVFDFFVTLLSLLPELVVLLGVPAHSVWLQLLRVCRVLRSLKLFARFRQIKVILLALVRALKSMTFLLMLLLIFFYIFAVTGVYFFREYSRSTIEGLEYNMFFSDLLNSLVTVFILFTLDHWYAVLQNIWKVPESSRVFSSIYVILWLLLGSIIFRNIIIAMMVTNFQNIRSELSEEMSHLEVQYKADMFKQQIIQRRQHSESLRGTSLGKVSEDIIETSDASDDDDDDDDDDDDDDDDDDDKSDATESDGEESDSENSESENSESEKIDPEKDYAKKSYPEKSHPEKSYPEKSHPEKSYPEKSHPEKSYDEQAEAEKVKEESKEKAYPVSHSISSHGSIAADTAFLENLDWETLVHENLPGLMDMDQDDRIVWPRDSLFRYFELLEKLQYNLEERKKLQEFAVQALMSFEDK
notes: also called mouse CatSper2; 68,000 Mr protein
